{"source": "patent EP4778940A1", "about": "(Artivila (ShenZhen) Innovation Center, Ltd., dated 2026)", "binders": {"B1": {"name": "Ab01-91M2 (antibody, V domains shown)", "VH": "DVQLQESGGGLVQPGGSLRLSCAASGFTFSNYLMGWYRQAPGKERELVAAINSAGYSTVYAESVKGRFTTSRDNAKSMVYLQMNSLKAEDTAVYYCNARYDRWHDYWGQGTQVTVSS"}, "B2": {"name": "Ab01-121M1 (antibody, V domains shown)", "VH": "DVQLQESGGGLVQPGGSLRLSCAASGSRFSFNVMGWHRQAPGKQRELVALISSGGTANYADSVKGRFTISRDNAGNTMYLQMNTLKPEDTAVYYCTATTPVGQYWGQGTQVTVSS"}, "B3": {"name": "Ab01-84M2 (antibody, V domains shown)", "VH": "DVQLQESGGGLVQAGGSLRLSCAASGFPFDDYSIGWFRQAPGKAREGISCISSTHGTTYYTDSVKDRFTITRDNAKNTVYLQMNNLKPEDAAVYYCAAGLDGLACHRRDSGSRYRTQLYDYWGQGTQVTVSS"}, "B4": {"name": "Ab01-7M2 (antibody, V domains shown)", "VH": "DVQLQESGGGLVQPGGSLRLSCAASGFTFSSTPMYWYRQAPGKERDFVAIMAPGGYEDIADSVRGRFSISRDNGNNTMYLQMNSLKPEDTALYYCRALNSWGQGTQVTVSS"}, "B5": {"name": "Ab01-110M1 (antibody, V domains shown)", "VH": "DVQLQESGGGLVQTGGSLRLSCAAPGFTLDDYAIGWFRQAPGKERERISCITSSTNRTYYANSVKGRFTISRDSAKNTVYLQMNSLKPEDTAVYYCAAEPILCVLWSAGGAMDYWGKGTQVTVSS"}, "B6": {"name": "Ab01-122M1 (antibody, V domains shown)", "VH": "DVQLQESGGGLVQPGGSLKLSCTASRRIFTFTAAGWYRQAPGQQREFVAVIANGGHTNYADSVKGRFTISRDNAKNTVYLQMNSLKPEDTAVYYCNTPPAFGSWGPGTQVTVSS"}, "B7": {"name": "Ab01-126M1 (antibody, V domains shown)", "VH": "B6 VH with K19R, R26T, T32S, Q43K, A52T, N53G, N76D"}, "B8": {"name": "positive control antibody 2C4 (antibody, V domains shown)", "VH": "EVHLQQSGPELEKPGVSVKISCKASGFSFTDYNMNWVKQSSGKSLEWIGNIDPYYGRINYNQKFKGKATLSVDKSSSTAYMHLKSLTSEDSAVYYCATGAYTSGYSWFAYWGQGTLVTVSS", "VL": "ENVLTQSPGIMAASLGEKVTMTCSASSSVSSSYLHWYQQRSGASPKPLIHRTSNLASGVPARFSGSGSGTSYSLTISSVEAEDDATYYCQQWSGYPFTFGSGTKLEIK", "notes": "also called positive control 2C4; positive antibody"}, "B9": {"name": "Ab01-63M2 (antibody, V domains shown)", "VH": "DVQLQESGGGLVQPGGSLRLSCAASGFTLDYYVIGWFRQAPGKEREGVSCISSSDGSTYSADSVKGRFTISRDNAENTVYLQMNSLKPEDTAVYYCAARRSPGIEGWCALPFFFGSWGQGTQVTVSS", "notes": "also called candidate parental antibody Ab01-63M2"}, "B10": {"name": "Ab01-63Ghm25 (antibody, V domains shown)", "VH": "B9 VH with D1E, Q5L, D55T, N74T, A75S, E76K, K87R, P88A, Q122L", "notes": "Humanized or engineered mutant of Ab01-63G4; also called mutant Ab01-63Ghm25"}, "B11": {"name": "Ab01-63Ghm28 (antibody, V domains shown)", "VH": "B9 VH with D1E, Q5L, D55T, N74T, A75S, E76K, K87R, P88A, F112E, Q122L", "notes": "Humanized or engineered mutant of Ab01-63G4; also called mutant Ab01-63Ghm28"}, "B12": {"name": "Ab01-63Ghm26 (antibody, V domains shown)", "VH": "B9 VH with D1E, Q5L, D55T, D62Q, N74T, A75S, E76K, K87R, P88A, Q122L", "notes": "Humanized or engineered mutant of Ab01-63G4; also called mutant Ab01-63Ghm26"}}, "note": "Positions count from the first letter of the chain named."}
{"molecular_target": "T1, human HHLA2 on cells (K562-hHHLA2; HCC827) (human, UniProt Q9UM44 23-414)", "T1 construct": "whole, on cells; also called K562 cells overexpressing human HHLA2; HCC827 cell line highly expressing human HHLA2", "T1 sequence (looked up)": "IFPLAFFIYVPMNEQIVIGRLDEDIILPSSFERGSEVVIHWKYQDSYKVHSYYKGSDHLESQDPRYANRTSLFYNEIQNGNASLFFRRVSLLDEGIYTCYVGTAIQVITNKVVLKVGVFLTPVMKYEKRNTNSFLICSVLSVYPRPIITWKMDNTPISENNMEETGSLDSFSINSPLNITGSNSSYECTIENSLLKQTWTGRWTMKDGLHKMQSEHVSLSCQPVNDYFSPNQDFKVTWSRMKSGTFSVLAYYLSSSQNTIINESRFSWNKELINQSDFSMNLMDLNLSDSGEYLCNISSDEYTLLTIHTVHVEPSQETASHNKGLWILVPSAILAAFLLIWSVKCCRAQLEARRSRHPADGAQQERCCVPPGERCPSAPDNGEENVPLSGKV", "assay": "flow cytometry on K562-hHHLA2 cells"}
{"binder": "B1", "binding result": "binds"}
{"binder": "B2", "binding result": "binds"}
{"binder": "B3", "binding result": "binds"}
{"binder": "B4", "binding result": "binds"}
{"binder": "B5", "binding result": "binds"}
{"binder": "B6", "binding result": "binds"}
{"binder": "B7", "binding result": "binds"}
{"molecular_target": "T1, human HHLA2 on cells (K562-hHHLA2; …)", "assay": "cell-based or functional assay", "units": {"EC50 (nM), promoting the killing effects of NK92MI on target cells (K562 overexpressing human HHLA2)": "nM"}}
{"binder": "B8", "EC50 (nM), promoting the killing effects of NK92MI on target cells (K562 overexpressing human HHLA2)": 0.192}
{"binder": "B9", "EC50 (nM), promoting the killing effects of NK92MI on target cells (K562 overexpressing human HHLA2)": 0.125}
{"molecular_target": "T1, human HHLA2 on cells (K562-hHHLA2; …)", "assay": "flow cytometry on HCC827 tumor cells highly expressing human HHLA2", "units": {"EC50": "nM"}}
{"binder": "B8", "EC50": 0.281}
{"binder": "B9", "EC50": 0.043}
{"molecular_target": "T2, human HHLA2 proteins (Acro Biosystems, B77-H52H5) (human, UniProt Q9UM44 23-344)", "T2 construct": "Bought recombinant protein coated on the ELISA plate; also called B7-H7; B7y", "T2 sequence (looked up)": "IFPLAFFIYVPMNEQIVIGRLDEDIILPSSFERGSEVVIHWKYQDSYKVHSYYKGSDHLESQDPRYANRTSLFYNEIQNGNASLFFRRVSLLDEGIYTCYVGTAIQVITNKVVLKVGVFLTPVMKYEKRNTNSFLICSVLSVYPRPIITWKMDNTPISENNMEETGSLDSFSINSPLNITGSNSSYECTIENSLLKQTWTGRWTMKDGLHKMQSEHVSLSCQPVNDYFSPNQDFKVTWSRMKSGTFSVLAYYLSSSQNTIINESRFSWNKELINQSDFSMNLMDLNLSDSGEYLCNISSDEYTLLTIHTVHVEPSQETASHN", "assay": "ELISA, human HHLA2 protein coated"}
{"binder": "B1", "binding result": "binds"}
{"binder": "B2", "binding result": "binds"}
{"binder": "B3", "binding result": "binds"}
{"binder": "B4", "binding result": "binds"}
{"binder": "B5", "binding result": "binds"}
{"binder": "B6", "binding result": "binds"}
{"binder": "B7", "binding result": "binds"}
{"binder": "B10", "binding result": "binds"}
{"binder": "B11", "binding result": "binds"}
{"binder": "B12", "binding result": "binds"}
